Measurements reported in publication PMC9482650, “Quantitative fragmentomics allow affinity mapping of interactomes” (Nature Communications, 2022).

T1: DFNB31_1, Q9P202
T1 sequence (Q9P202 135-233, limits assumed, looked up): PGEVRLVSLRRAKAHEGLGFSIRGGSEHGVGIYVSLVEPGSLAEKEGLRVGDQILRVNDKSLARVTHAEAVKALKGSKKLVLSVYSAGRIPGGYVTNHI

T2: DLG3_3, Q92796
T2 sequence (Q92796 374-475, limits assumed, looked up): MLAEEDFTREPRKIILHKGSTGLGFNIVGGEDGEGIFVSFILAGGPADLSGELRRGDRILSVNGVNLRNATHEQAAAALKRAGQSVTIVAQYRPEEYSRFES

T3: GRIP1_4, Q9Y3R0
T3 sequence (Q9Y3R0 467-571, limits assumed, looked up): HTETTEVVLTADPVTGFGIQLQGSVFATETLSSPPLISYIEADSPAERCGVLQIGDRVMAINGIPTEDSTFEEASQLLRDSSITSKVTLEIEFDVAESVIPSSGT

T4: LNX2_2, Q8N448
T4 sequence (Q8N448 334-432, limits assumed, looked up): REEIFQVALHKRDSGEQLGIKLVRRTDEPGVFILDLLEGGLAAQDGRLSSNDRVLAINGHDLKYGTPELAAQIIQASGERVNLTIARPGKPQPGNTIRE

T5: MPP2, Q14168
T5 sequence (Q14168 180-250, limits assumed, looked up): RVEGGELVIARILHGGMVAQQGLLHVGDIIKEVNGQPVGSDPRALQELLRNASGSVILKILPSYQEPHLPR

T6: PARD3B_1, Q8TEW8
T6 sequence (Q8TEW8 196-299, limits assumed, looked up): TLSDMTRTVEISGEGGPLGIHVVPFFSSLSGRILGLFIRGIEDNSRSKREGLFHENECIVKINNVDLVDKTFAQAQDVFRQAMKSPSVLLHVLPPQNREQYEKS

T7: PDZD7_3, Q9H5P4
T7 sequence (Q9H5P4 857-944, limits assumed, looked up): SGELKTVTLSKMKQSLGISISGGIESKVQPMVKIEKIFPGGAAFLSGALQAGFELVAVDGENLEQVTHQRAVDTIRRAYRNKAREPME

T8: PTPN13_1, Q12923
T8 sequence (Q12923 1088-1188, limits assumed, looked up): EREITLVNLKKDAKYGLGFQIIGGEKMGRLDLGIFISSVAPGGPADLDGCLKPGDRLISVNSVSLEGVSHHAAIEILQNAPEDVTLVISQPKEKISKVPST

T9: SHANK1, Q9Y566
T9 sequence (Q9Y566 658-767, limits assumed, looked up): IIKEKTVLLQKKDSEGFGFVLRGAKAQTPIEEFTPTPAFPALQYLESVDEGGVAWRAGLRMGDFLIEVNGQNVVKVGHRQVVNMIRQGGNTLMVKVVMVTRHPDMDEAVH

T10: SIPA1L2, Q9P2F8
T10 sequence (Q9P2F8 945-1036, limits assumed, looked up): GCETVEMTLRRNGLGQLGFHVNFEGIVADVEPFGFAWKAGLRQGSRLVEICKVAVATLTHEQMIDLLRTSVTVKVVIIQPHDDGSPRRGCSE

T11: SNTG2, Q9NY99
T11 sequence (Q9NY99 68-166, limits assumed, looked up): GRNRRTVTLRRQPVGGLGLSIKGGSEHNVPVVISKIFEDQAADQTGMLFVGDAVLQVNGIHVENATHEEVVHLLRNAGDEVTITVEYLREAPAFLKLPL

B1: KIF17, Q9P2E2 (peptide)
chain: SKSNFGSEPL
B2: NLGN4X, Q8N0W4 (peptide)
chain: LPHGHSTTRV
B3: MYOZ3, Q8TDC0 (peptide)
chain: VRNLPESEEL
B4: MMP24, Q9Y5R2 (peptide)
chain: YYKRPVQEWV

target: ARHGEF12, Q9NZN5-2; assay: holdup assay; design: key: below the threshold = too weak to quantify, mostly under pKd 3.1 to 4; settings: plain residues with an end cap or a label only (N-terminal biotin on a linker: ado-ado)
Sequence (Q9NZN5 other isoform, or with tags, fused parts or gaps): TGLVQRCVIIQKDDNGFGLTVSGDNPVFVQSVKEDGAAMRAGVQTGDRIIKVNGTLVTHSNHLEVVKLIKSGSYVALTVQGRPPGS

Binder | pKd
B1 | below the threshold
B2 | 3.98
B3 | below the threshold
B4 | 3.62

target: CASK, O14936; assay: holdup assay; design: key: below the threshold = too weak to quantify, mostly under pKd 3.1 to 4; settings: plain residues with an end cap or a label only (N-terminal biotin on a linker: ado-ado)
Sequence (O14936 487-570): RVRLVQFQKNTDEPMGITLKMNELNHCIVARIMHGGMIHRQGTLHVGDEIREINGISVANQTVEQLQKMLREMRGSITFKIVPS

Binder | pKd
B1 | below the threshold
B2 | below the threshold
B3 | below the threshold
B4 | below the threshold

target: T1, DFNB31_1, Q9P202; assay: holdup assay; design: key: below the threshold = too weak to quantify, mostly under pKd 3.1 to 4; settings: plain residues with an end cap or a label only (N-terminal biotin on a linker: ado-ado)

Binder | pKd
B1 | below the threshold
B2 | 4.06
B3 | below the threshold
B4 | below the threshold

target: T2, DLG3_3, Q92796; assay: holdup assay; design: key: below the threshold = too weak to quantify, mostly under pKd 3.1 to 4; settings: plain residues with an end cap or a label only (N-terminal biotin on a linker: ado-ado)

Binder | pKd
B1 | below the threshold
B2 | 4.27
B3 | below the threshold
B4 | below the threshold

target: FRMPD4, Q14CM0; assay: holdup assay; design: key: below the threshold = too weak to quantify, mostly under pKd 3.1 to 4; settings: plain residues with an end cap or a label only (N-terminal biotin on a linker: ado-ado)
Sequence (Q14CM0 67-160): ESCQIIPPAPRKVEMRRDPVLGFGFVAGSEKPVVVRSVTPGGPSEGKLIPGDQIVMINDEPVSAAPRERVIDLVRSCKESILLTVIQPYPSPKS

Binder | pKd
B1 | below the threshold
B2 | below the threshold
B3 | 3.89
B4 | below the threshold

target: GRASP, Q7Z6J2; assay: holdup assay; design: key: below the threshold = too weak to quantify, mostly under pKd 3.1 to 4; settings: plain residues with an end cap or a label only (N-terminal biotin on a linker: ado-ado)
Sequence (Q7Z6J2 96-193): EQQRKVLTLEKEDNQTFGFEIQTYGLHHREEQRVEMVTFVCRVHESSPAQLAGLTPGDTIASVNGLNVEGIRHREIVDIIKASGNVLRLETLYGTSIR

Binder | pKd
B1 | below the threshold
B2 | 4.29
B3 | 3.74
B4 | 3.88

target: GRID2IP_2, A4D2P6; assay: holdup assay; design: key: below the threshold = too weak to quantify, mostly under pKd 3.1 to 4; settings: plain residues with an end cap or a label only (N-terminal biotin on a linker: ado-ado)
Sequence (A4D2P6 272-370): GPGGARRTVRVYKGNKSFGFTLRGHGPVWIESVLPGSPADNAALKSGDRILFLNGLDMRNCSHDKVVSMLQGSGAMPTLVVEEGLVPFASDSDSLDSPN

Binder | pKd
B1 | below the threshold
B2 | 3.84
B3 | below the threshold
B4 | 3.89

target: T3, GRIP1_4, Q9Y3R0; assay: holdup assay; design: key: below the threshold = too weak to quantify, mostly under pKd 3.1 to 4; settings: plain residues with an end cap or a label only (N-terminal biotin on a linker: ado-ado)

Binder | pKd
B1 | below the threshold
B2 | below the threshold
B3 | below the threshold
B4 | below the threshold

target: IL16_1, Q14005; assay: holdup assay; design: key: below the threshold = too weak to quantify, mostly under pKd 3.1 to 4; settings: plain residues with an end cap or a label only (N-terminal biotin on a linker: ado-ado)
Sequence (Q14005 210-306): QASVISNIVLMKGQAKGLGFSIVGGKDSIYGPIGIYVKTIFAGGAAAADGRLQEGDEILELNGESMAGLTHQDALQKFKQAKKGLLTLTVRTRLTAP

Binder | pKd
B1 | below the threshold
B2 | below the threshold
B3 | below the threshold
B4 | 3.48

target: Inadl_9, Q8NI35; assay: holdup assay; design: key: below the threshold = too weak to quantify, mostly under pKd 3.1 to 4; settings: plain residues with an end cap or a label only (N-terminal biotin on a linker: ado-ado)
Sequence (Q8NI35 1530-1615): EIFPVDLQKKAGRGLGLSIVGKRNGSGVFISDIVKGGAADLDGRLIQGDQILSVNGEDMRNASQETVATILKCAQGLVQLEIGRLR

Binder | pKd
B1 | below the threshold
B2 | below the threshold
B3 | below the threshold
B4 | 4.17

target: LDB3, O75112; assay: holdup assay; design: key: below the threshold = too weak to quantify, mostly under pKd 3.1 to 4; settings: plain residues with an end cap or a label only (N-terminal biotin on a linker: ado-ado)
Sequence (O75112 1-94): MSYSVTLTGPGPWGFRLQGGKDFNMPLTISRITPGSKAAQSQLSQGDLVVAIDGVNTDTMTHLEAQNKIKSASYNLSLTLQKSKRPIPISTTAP

Binder | pKd
B1 | below the threshold
B2 | below the threshold
B3 | 5.19
B4 | below the threshold

target: LNX1_1, Q8TBB1; assay: holdup assay; design: key: below the threshold = too weak to quantify, mostly under pKd 3.1 to 4; settings: plain residues with an end cap or a label only (N-terminal biotin on a linker: ado-ado)
Sequence (Q8TBB1 261-371): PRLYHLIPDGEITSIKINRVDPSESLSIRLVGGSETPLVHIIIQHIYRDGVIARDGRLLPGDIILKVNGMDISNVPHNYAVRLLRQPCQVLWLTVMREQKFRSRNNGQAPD

Binder | pKd
B1 | below the threshold
B2 | 3.79
B3 | below the threshold
B4 | 3.5

target: T4, LNX2_2, Q8N448; assay: holdup assay; design: key: below the threshold = too weak to quantify, mostly under pKd 3.1 to 4; settings: plain residues with an end cap or a label only (N-terminal biotin on a linker: ado-ado)

Binder | pKd
B1 | below the threshold
B2 | 3.8
B3 | below the threshold
B4 | 4.86

target: MAGI1_1, Q96QZ7; assay: holdup assay; design: key: below the threshold = too weak to quantify, mostly under pKd 3.1 to 4; settings: plain residues with an end cap or a label only (N-terminal biotin on a linker: ado-ado)
Sequence (Q96QZ7 1-106): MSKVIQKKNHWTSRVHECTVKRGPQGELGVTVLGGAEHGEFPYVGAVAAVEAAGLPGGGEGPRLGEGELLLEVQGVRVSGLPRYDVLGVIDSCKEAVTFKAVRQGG

Binder | pKd
B1 | below the threshold
B2 | below the threshold
B3 | below the threshold
B4 | 3.48

target: MAGI2_6, Q86UL8; assay: holdup assay; design: key: below the threshold = too weak to quantify, mostly under pKd 3.1 to 4; settings: plain residues with an end cap or a label only (N-terminal biotin on a linker: ado-ado)
Sequence (Q86UL8 1141-1229): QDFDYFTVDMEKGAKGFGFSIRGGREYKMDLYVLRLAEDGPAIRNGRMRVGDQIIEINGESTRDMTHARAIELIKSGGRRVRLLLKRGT

Binder | pKd
B1 | below the threshold
B2 | below the threshold
B3 | 4.01
B4 | 4.31

target: T5, MPP2, Q14168; assay: holdup assay; design: key: below the threshold = too weak to quantify, mostly under pKd 3.1 to 4; settings: plain residues with an end cap or a label only (N-terminal biotin on a linker: ado-ado)

Binder | pKd
B1 | below the threshold
B2 | below the threshold
B3 | below the threshold
B4 | below the threshold

target: NHERF2_2, Q15599; assay: holdup assay; design: key: below the threshold = too weak to quantify, mostly under pKd 3.1 to 4; settings: plain residues with an end cap or a label only (N-terminal biotin on a linker: ado-ado)
Sequence (Q15599 142-238): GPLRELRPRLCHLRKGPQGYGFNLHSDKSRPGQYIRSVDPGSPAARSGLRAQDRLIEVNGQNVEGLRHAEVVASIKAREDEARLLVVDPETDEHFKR

Binder | pKd
B1 | below the threshold
B2 | 3.78
B3 | 3.64
B4 | below the threshold

target: NHERF4_1, Q86UT5-2; assay: holdup assay; design: key: below the threshold = too weak to quantify, mostly under pKd 3.1 to 4; settings: plain residues with an end cap or a label only (N-terminal biotin on a linker: ado-ado)
Sequence (Q86UT5 other isoform, or with tags, fused parts or gaps): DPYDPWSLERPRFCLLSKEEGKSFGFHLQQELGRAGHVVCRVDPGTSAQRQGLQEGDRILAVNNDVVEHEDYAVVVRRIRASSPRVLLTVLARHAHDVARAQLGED

Binder | pKd
B1 | 4.21
B2 | 3.76
B3 | 4.3
B4 | 3.47

target: NHERF4_2, Q86UT5; assay: holdup assay; design: key: below the threshold = too weak to quantify, mostly under pKd 3.1 to 4; settings: plain residues with an end cap or a label only (N-terminal biotin on a linker: ado-ado)
Sequence (Q86UT5 220-308): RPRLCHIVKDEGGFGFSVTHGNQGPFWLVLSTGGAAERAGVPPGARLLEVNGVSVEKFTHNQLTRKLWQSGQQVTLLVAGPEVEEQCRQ

Binder | pKd
B1 | below the threshold
B2 | below the threshold
B3 | below the threshold
B4 | below the threshold

target: T6, PARD3B_1, Q8TEW8; assay: holdup assay; design: key: below the threshold = too weak to quantify, mostly under pKd 3.1 to 4; settings: plain residues with an end cap or a label only (N-terminal biotin on a linker: ado-ado)

Binder | pKd
B1 | 3.65
B2 | below the threshold
B3 | 3.58
B4 | below the threshold

target: T7, PDZD7_3, Q9H5P4; assay: holdup assay; design: key: below the threshold = too weak to quantify, mostly under pKd 3.1 to 4; settings: plain residues with an end cap or a label only (N-terminal biotin on a linker: ado-ado)

Binder | pKd
B1 | below the threshold
B2 | 4.28
B3 | 3.74
B4 | below the threshold

target: T8, PTPN13_1, Q12923; assay: holdup assay; design: key: below the threshold = too weak to quantify, mostly under pKd 3.1 to 4; settings: plain residues with an end cap or a label only (N-terminal biotin on a linker: ado-ado)

Binder | pKd
B1 | below the threshold
B2 | below the threshold
B3 | below the threshold
B4 | below the threshold

target: SCRIB_3, Q14160; assay: holdup assay; design: key: below the threshold = too weak to quantify, mostly under pKd 3.1 to 4; settings: plain residues with an end cap or a label only (N-terminal biotin on a linker: ado-ado)
Sequence (Q14160 999-1103): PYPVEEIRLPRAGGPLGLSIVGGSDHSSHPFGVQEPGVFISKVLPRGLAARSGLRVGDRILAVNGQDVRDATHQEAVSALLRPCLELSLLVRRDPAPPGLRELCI

Binder | pKd
B1 | below the threshold
B2 | below the threshold
B3 | below the threshold
B4 | 3.52

target: T9, SHANK1, Q9Y566; assay: holdup assay; design: key: below the threshold = too weak to quantify, mostly under pKd 3.1 to 4; settings: plain residues with an end cap or a label only (N-terminal biotin on a linker: ado-ado)

Binder | pKd
B1 | below the threshold
B2 | 4.88
B3 | below the threshold
B4 | below the threshold

target: T10, SIPA1L2, Q9P2F8; assay: holdup assay; design: key: below the threshold = too weak to quantify, mostly under pKd 3.1 to 4; settings: plain residues with an end cap or a label only (N-terminal biotin on a linker: ado-ado)

Binder | pKd
B1 | below the threshold
B2 | below the threshold
B3 | below the threshold
B4 | below the threshold

target: T11, SNTG2, Q9NY99; assay: holdup assay; design: key: below the threshold = too weak to quantify, mostly under pKd 3.1 to 4; settings: plain residues with an end cap or a label only (N-terminal biotin on a linker: ado-ado)

Binder | pKd
B1 | below the threshold
B2 | 4
B3 | below the threshold
B4 | below the threshold
